# Residue numbers refer to the chain shown, from its start.
# B1: Anti-spike RBD Ab38 scFv (scFv)
# scFv: ELQMTQSPSSLSASVGDRVTITCRASQSISSYLNWYQQKPGKAPKLLIYAASSLQSGVPSRFSGSGSGTDFTLTISSLQPEDFATYYCQQANSFPLTFGGGTKVEIKGGSSRSSQVQLVQSGAEVKKPGSSVKVSCKASGGTLSENGFSWVRQAPGQGLEWMGRIVPMFDISNYAERFQDRVTITADGSTNTAYMELRSLRLEDTAVYYCARDAVATSPGVYQHYGMDVWGQGTTVTVSSASTKGPSV
# B2: Anti-spike RBD Ab37 scFv (scFv)
# scFv: ELMLTQPPSVSVAPGQTARITCGGNNIGSKSVHWYQQKPGQAPVLVVYDDSDRPSGIPERFSGSNSGNTATLTISRVEAGDEADYYCQVWDNTLLFGGGTELTVLGGGSSRSSGVQLVESGGGLVQPGGSLRLSCSASGFTFSSYAMHWVRQAPGKGLEYVSGISSNGGGTHYADSVKGRFSISRDNSKNTLYLQMSSLRAEDTAVYYCVKDDSGSYFSLFDHWGQGTLVTVSSASTKGPSV
# B3: Anti-spike RBD Ab36 scFv (scFv)
# scFv: ELVMTQSPSSVSASVGDRVTITCRASQAIGSWLAWYQQKPGKAPKLLISSASSLQSGVPSRFSGSGSGTDFTLTISSLQPEDFATYYCQQLDSYPVTFGPGTKVDIKGGSSRSSEVQLLESGGGLIQPGGSLRLSCAASGLTVSSNYMSWVRQAPGKGLEWVSVIYSGGSTYYADSVKGRFTISRDNSKNTLYLQMNSLRAEDTAVYYCARAIDSGAFDIWGQGTMVTVSSGSASAPTL
# B4: ab14 (scFv, V domains shown)
# VH: QVQLQQSGPGLVKPSQTLSLTCAISGDSVSSNSAAWNWIRQSPARGLEWLGRTYYRSRWYNDYAISMKSRITINPDTSKNQFSLQLESVTPEDTAVYYCAREIRGFDYWGQGTLVTVSS
# VL: QSVLTQPPSASGSPGQSVTISCTGTSSDVGAYNFVSWYQHHPGKAPKLIIYDFNKRPSGVPDRFSGSKSGNTASLTVSGLQADDEADYYCSSYAGSNNFDVVFGGGTKLTVL
# B5: ab31 (scFv, V domains shown)
# VH: EVQLVESGAEVKKPGESLKISCKGSGYTFTRYWIGWVRQMPGKGLEWMGIIYPGDLDTRYSPSFQGHVTISADKSISTAYLQWNSLKASDTAMYYCARLPQYCYKGVCKRWFDPWGQGTLVTVSS
# VL: EIVLTQSPSSVSASVGDRVTITCRASQGIRSWLAWYQQKPGKAPKLLIYAASSLQSGVPSRFSGSGSGTDFTLTISSLQPEDFATYYCQQGHSVPYTFGQGTNLEIK
# B6: ab43 (scFv, V domains shown)
# VH: B5 VH with L56S, Y104S, K105A, K109F
# VL: B5 VL with R30S, V94F
# B7: ab50 (scFv, V domains shown)
# VH: B5 VH with L56A, T58V, Y104S, K105S, V107S, K109F
# VL: B5 VL with R30S, H92Y, V94T
# B8: ab34 (scFv, V domains shown)
# VH: B5 VH with L56A, T58V, Y104R
# VL: B5 VL with V94T
# B9: ab44 (scFv, V domains shown)
# VH: B5 VH with T58V, Y104R, K105E, V107K, K109H
# VL: B5 VL with S31N, H92D, S93Q, V94D, Y96L
# B10: ab48 (scFv, V domains shown)
# VH: B5 VH with L56N, T58V, Y104D, V107I
# VL: B5 VL with R30S, H92D, S93Q, V94L
# B11: ab32 (scFv, V domains shown)
# VH: B5 VH with L56S, D57E, Y104R, K105R
# VL: B5 VL with R30S, H92N, S93Q, V94L
# B12: ab47 (scFv, V domains shown)
# VH: B5 VH with L56S, Y104Q, K105N, K109H
# VL: B5 VL with S31N, H92D, S93Q, V94D, Y96L
# B13: ab49 (scFv, V domains shown)
# VH: B5 VH with L56S, Y104E, K105N, V107I
# VL: B5 VL with H92D, S93Q, V94Y, Y96L
# B14: ab45 (scFv, V domains shown)
# VH: B5 VH with L56S, Y104S, K105S, K109Q
# VL: B5 VL with R30S, H92N, S93Q, V94F
# B15: ab40 (scFv, V domains shown)
# VH: B5 VH with L56S, D57E, Y104R, K105S, K109Q
# VL: B5 VL with R30S, H92N, S93Q
# B16: ab35 (scFv, V domains shown)
# VH: B5 VH with L56A, Y104S, K105R, K109Q
# VL: B5 VL with R30S, H92N, S93Q, V94F
# B17: ab33 (scFv, V domains shown)
# VH: B5 VH with L56S, Y104R, K105A, V107K
# VL: B5 VL with R30S, H92N, S93Q, V94Y
# B18: ab46 (scFv, V domains shown)
# VH: B5 VH with L56S, Y104S, K105S, K109H
# VL: B5 VL with R30S, V94F
# B19: ab42 (scFv, V domains shown)
# VH: B5 VH with L56S, Y104Q, K105S
# VL: B5 VL with H92D, S93Q, V94Y, Y96L
# B20: ab41 (scFv, V domains shown)
# VH: B5 VH with L56N, T58V, Y104S, K105A, K109F
# VL: B5 VL with R30S, S31N, H92Y, V94Y
# B21: ab19 (scFv, V domains shown)
# VH: EVQLVESGAEVKKPGESLKISCKGSGYSFTSYWIGWVRQMPGKGLEWMGIIYPGDSDTRYSPSFQGQVTISADKSISTAYLQWSSLKASDTAMYYCARRGDLDAFDIWGQGTMVTVSS
# VL: QPGLTQPPAASGTPGQRVTVSCSGASANIGSNAVSWFKQFPETAPRLLISGNTHRPSGVPDRVSGSKSGTSASLTISGLQSDDEADYYCAAWDDSLNGYVFGSGTKVTVL
# B22: ab23 (scFv, V domains shown)
# VH: EVQLVQSGAEVKKPGSSVKVSCRSSGGTFSTYGITWVRQAPGQGLEWMGRIIPSLGIPNYAQKFQGRVTITADTSVSTAWMELSSLESDDTAIYYCARENIDLATNDFWGQGTLVTVSS
# VL: QSALTQPPSASGSPGQSVTISCTGTSRDIGAYGYVSWYQQVPGKAPKLIIYEVRNRPSGVSSRFSGSKSGNTASLTISGLQAEDEADYYCSSYTSSSTLDVVFGGGTKLTVL
# B23: Anti-spike RBD Ab27 scFv (scFv)
# scFv: ELQMTQSPSSLSASVGDRVTITCRASQSISSYLNWYQQKPGKAPKLLIYAASSLQSGVPSRFSGSGSGTDFTLTISSLQPEDFATYYCQQANSFPFTFGPGTKVDIKGGSSRSSQVQLVQSGAEVKKPGASVKVSCKASGYTFTSYGISWVRQAPGQGLEWMGWVNPNGGHTGYAQKFQGRVTMTRHTATNTVYMELSSLTSDDTAVYYCARGKGYYYGMDVWGQGTTVLVSSASTKGPSV
# B24: Anti-spike RBD Ab39 scFv (scFv)
# scFv: ELVLTQSPGTLSLSPGERATLSCRASQSLYNNFLAWYQQKPGQAPRLLIYAASNRATGIPDRFSGSGSGTDFTLTISRLEPEDFAVYYCQQYGSSPGYTFGQGTKLEIKGGSSRSSQVQLVQSGAEVKKPGSSVKVSCKASGGTFSSYAISWVRQAPGQGLEWMGGIIPIFGTANYAQKFQGRVTITADESTSTAYMELSSLRSEDTAVYYCARTLRQYYYYGMDVWGQGTTVTVSSGSASAPTL
# Biological target: T1, purified 6× His-tagged SARS-CoV-2 spike protein (ELISA coat, Example 12) (SARS-CoV-2, UniProt P0DTC2 14-1213)
row,Binder,EC50 [nM]
1,B1,10.6
2,B2,5.18
3,B3,31.2

# Biological target: purified 6× His-tagged SARS-CoV-2 spike protein (ELISA coat, Example 12) (SARS-CoV-2, UniProt P0DTC2 14-1213)
row,Binder,EC50 [nM]
1,B4,154
2,B5,40.4
3,B6,216
4,B7,165
5,B8,22.7
6,B9,28.2
7,B10,1560
8,B11,13.1
9,B12,81.7
10,B13,234
11,B14,37.3
12,B15,40
13,B16,39
14,B17,33.4
15,B18,106
16,B19,721
17,B20,34.1
18,B21,24.2
19,B22,116

# Biological target: T1, purified 6× His-tagged SARS-CoV-2 spike …
# Remark: another data set of the same source
row,Binder,EC50 [nM]
1,B2,5.28
2,B23,8.85
3,B24,4.93

# From patent US20230303654A1 (CITY OF HOPE, published 2023)
